The series deals with Escherichia coli TOP10. The series is described as follows: shrunken log2 fold change of peptide-encoding DNA abundance (4.5 h post-induction vs induction); higher = less antimicrobial activity (less host growth inhibition). Conditions: time post-induction: 4.5 h; library: site-saturation at positions 5, 18, 19, 20.

We go through 125 sequences from the supplement of paper PMC9112550, “Optimization of the antimicrobial peptide Bac7 by deep mutational scanning” (BMC Biology, 2022).
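Further: peptides expressed intracellularly from a pBAD plasmid library in pooled LB shake-flask culture, induced with 0.3% L-arabinose, DNA abundance read by NGS, three biological replicates, DESeq2 with apeglm shrinkage.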

Consider RRIRCRPPRLPRPRPRPIRQPRP, for which the “shrunken log2 fold change” value was -0.0914.

As for RRIRQRPPRLPRPRPRPFNGPRP, the “shrunken log2 fold change” value was -0.3.

Turning to RRIRSRPPRLPRPRPRPSESPRP, the “shrunken log2 fold change” value was -0.198.

Consider RRIRQRPPRLPRPRPRPNYTPRP, for which the “shrunken log2 fold change” value is -0.207.

With RRIRQRPPRLPRPRPRPPTMPRP, the “shrunken log2 fold change” value came to 0.29.

Turning to RRIRARPPRLPRPRPRPYWRPRP, the “shrunken log2 fold change” value is -0.096.

On to RRIRWRPPRLPRPRPRPHPLPRP, for which the “shrunken log2 fold change” value is -0.0381.

For the sequence RRIRQRPPRLPRPRPRPFEFPRP, the “shrunken log2 fold change” value is -0.109.

For the sequence RRIRKRPPRLPRPRPRPVFKPRP, the “shrunken log2 fold change” value turned out to be 0.288.

Take RRIRVRPPRLPRPRPRPKEFPRP: the “shrunken log2 fold change” value is 0.0951.

On to RRIRRRPPRLPRPRPRPCEYPRP, for which the “shrunken log2 fold change” value was determined as 0.0177.

With RRIRRRPPRLPRPRPRPIGMPRP, the “shrunken log2 fold change” value was -0.0232.

As to RRIRWRPPRLPRPRPRPSTSPRP, the “shrunken log2 fold change” value is -0.302.

Regarding RRIRRRPPRLPRPRPRPRTRPRP, the “shrunken log2 fold change” value amounted to 0.528.

With RRIRLRPPRLPRPRPRPMRAPRP, the “shrunken log2 fold change” value came out at 0.862.

As to RRIRQRPPRLPRPRPRPSRHPRP, the “shrunken log2 fold change” value was -0.0666.

RRIRKRPPRLPRPRPRPITVPRP: the “shrunken log2 fold change” value came to 0.0944.

Take RRIRQRPPRLPRPRPRPWCWPRP: the “shrunken log2 fold change” value worked out at 0.304.

As to RRIRPRPPRLPRPRPRPFTTPRP, the “shrunken log2 fold change” value is -0.0187.

On to RRIRERPPRLPRPRPRPEYAPRP, for which the “shrunken log2 fold change” value is -0.143.

RRIRRRPPRLPRPRPRPVDWPRP: the “shrunken log2 fold change” value was determined as 0.577.

On to RRIRNRPPRLPRPRPRPYFCPRP, for which the “shrunken log2 fold change” value was -0.5.

In the case of RRIRQRPPRLPRPRPRPSHAPRP, the “shrunken log2 fold change” value is -0.107.

Consider RRIRARPPRLPRPRPRPYYHPRP, for which the “shrunken log2 fold change” value is -1.02.

Take RRIRYRPPRLPRPRPRPRYNPRP: the “shrunken log2 fold change” value is -0.339.

Turning to RRIRDRPPRLPRPRPRPFSQPRP, the “shrunken log2 fold change” value is -0.172.

For the sequence RRIRCRPPRLPRPRPRPDDCPRP, the “shrunken log2 fold change” value was found to be 0.112.

RRIRMRPPRLPRPRPRPFWNPRP: the “shrunken log2 fold change” value is -0.266.

RRIRPRPPRLPRPRPRPSNEPRP: the “shrunken log2 fold change” value is -0.406.

In the case of RRIRIRPPRLPRPRPRPYEMPRP, the “shrunken log2 fold change” value was -0.00062.

As to RRIRMRPPRLPRPRPRPPQKPRP, the “shrunken log2 fold change” value turned out to be 0.173.

As for RRIRGRPPRLPRPRPRPNDFPRP, the “shrunken log2 fold change” value was -0.000929.

With RRIRQRPPRLPRPRPRPPMSPRP, the “shrunken log2 fold change” value is -0.139.

Turning to RRIRQRPPRLPRPRPRPAQEPRP, the “shrunken log2 fold change” value is 0.852.

For RRIRNRPPRLPRPRPRPLQWPRP, the “shrunken log2 fold change” value came out at 0.0683.

Regarding RRIRYRPPRLPRPRPRPKAFPRP, the “shrunken log2 fold change” value worked out at 0.0171.

As to RRIRNRPPRLPRPRPRPTLCPRP, the “shrunken log2 fold change” value amounted to 0.00464.

As for RRIRPRPPRLPRPRPRPIYNPRP, the “shrunken log2 fold change” value was -0.837.

With RRIRQRPPRLPRPRPRPNLSPRP, the “shrunken log2 fold change” value was -0.258.

For the sequence RRIRHRPPRLPRPRPRPSMIPRP, the “shrunken log2 fold change” value was -0.23.

RRIRFRPPRLPRPRPRPIAEPRP: the “shrunken log2 fold change” value was determined as 0.2.

For RRIRFRPPRLPRPRPRPWLQPRP, the “shrunken log2 fold change” value was -0.163.

As for RRIRTRPPRLPRPRPRPCQDPRP, the “shrunken log2 fold change” value was -0.13.

Turning to RRIRHRPPRLPRPRPRPQLCPRP, the “shrunken log2 fold change” value is 0.0716.

Consider RRIRSRPPRLPRPRPRPADFPRP, for which the “shrunken log2 fold change” value is -0.0669.

With RRIRTRPPRLPRPRPRPRLMPRP, the “shrunken log2 fold change” value turned out to be 0.119.

As to RRIRKRPPRLPRPRPRPGDKPRP, the “shrunken log2 fold change” value is 0.0976.

Regarding RRIRTRPPRLPRPRPRPVLQPRP, the “shrunken log2 fold change” value was 4.38.

Take RRIRTRPPRLPRPRPRPDTGPRP: the “shrunken log2 fold change” value is -0.0906.

RRIRQRPPRLPRPRPRPIINPRP: the “shrunken log2 fold change” value was -0.235.

On to RRIRERPPRLPRPRPRPDNCPRP, for which the “shrunken log2 fold change” value is -0.0268.

As for RRIRYRPPRLPRPRPRPLIEPRP, the “shrunken log2 fold change” value was -0.442.

RRIRMRPPRLPRPRPRPTTFPRP: the “shrunken log2 fold change” value was found to be 0.00693.

With RRIRMRPPRLPRPRPRPIVMPRP, the “shrunken log2 fold change” value amounted to 0.163.

RRIRERPPRLPRPRPRPHVQPRP: the “shrunken log2 fold change” value was -0.434.

As to RRIRIRPPRLPRPRPRPPHQPRP, the “shrunken log2 fold change” value amounted to 0.000816.

Regarding RRIRGRPPRLPRPRPRPFTCPRP, the “shrunken log2 fold change” value was -0.22.

As for RRIRGRPPRLPRPRPRPGGSPRP, the “shrunken log2 fold change” value amounted to 0.92.

Turning to RRIRCRPPRLPRPRPRPIWEPRP, the “shrunken log2 fold change” value came out at 0.0488.

As to RRIRTRPPRLPRPRPRPGGIPRP, the “shrunken log2 fold change” value was 0.0232.

For RRIRWRPPRLPRPRPRPCAWPRP, the “shrunken log2 fold change” value was 0.0191.

Turning to RRIRCRPPRLPRPRPRPQHGPRP, the “shrunken log2 fold change” value is -0.211.

As to RRIRERPPRLPRPRPRPRKSPRP, the “shrunken log2 fold change” value is -0.131.

As to RRIRIRPPRLPRPRPRPSSDPRP, the “shrunken log2 fold change” value stood at 0.0499.

For the sequence RRIRSRPPRLPRPRPRPCIIPRP, the “shrunken log2 fold change” value is 0.00867.

Turning to RRIRNRPPRLPRPRPRPCSWPRP, the “shrunken log2 fold change” value was -0.117.

Turning to RRIRFRPPRLPRPRPRPGNKPRP, the “shrunken log2 fold change” value was -0.344.

For the sequence RRIRSRPPRLPRPRPRPGTAPRP, the “shrunken log2 fold change” value stood at 0.33.

For RRIRARPPRLPRPRPRPCATPRP, the “shrunken log2 fold change” value turned out to be 1.06.

Take RRIRKRPPRLPRPRPRPDFYPRP: the “shrunken log2 fold change” value was -0.0302.

On to RRIRERPPRLPRPRPRPNKNPRP, for which the “shrunken log2 fold change” value came to 0.0755.

On to RRIRGRPPRLPRPRPRPATCPRP, for which the “shrunken log2 fold change” value came to 0.512.

On to RRIRNRPPRLPRPRPRPKPVPRP, for which the “shrunken log2 fold change” value came to 0.24.

Turning to RRIRMRPPRLPRPRPRPITIPRP, the “shrunken log2 fold change” value is -0.315.

Consider RRIRGRPPRLPRPRPRPMKPPRP, for which the “shrunken log2 fold change” value came out at 0.276.

On to RRIRTRPPRLPRPRPRPNYMPRP, for which the “shrunken log2 fold change” value turned out to be 0.0222.

In the case of RRIRFRPPRLPRPRPRPALMPRP, the “shrunken log2 fold change” value is -0.0289.

RRIRARPPRLPRPRPRPKSRPRP: the “shrunken log2 fold change” value was 0.474.

Turning to RRIRKRPPRLPRPRPRPGGQPRP, the “shrunken log2 fold change” value stood at 0.108.

Consider RRIRFRPPRLPRPRPRPNLLPRP, for which the “shrunken log2 fold change” value was -0.187.

Regarding RRIRFRPPRLPRPRPRPWGMPRP, the “shrunken log2 fold change” value is -0.171.

For the sequence RRIRMRPPRLPRPRPRPGFHPRP, the “shrunken log2 fold change” value was -0.039.

In the case of RRIRVRPPRLPRPRPRPALEPRP, the “shrunken log2 fold change” value came out at 0.495.

With RRIRKRPPRLPRPRPRPINWPRP, the “shrunken log2 fold change” value came out at 0.0577.

Consider RRIRPRPPRLPRPRPRPASPPRP, for which the “shrunken log2 fold change” value was 0.287.

Consider RRIRYRPPRLPRPRPRPVIYPRP, for which the “shrunken log2 fold change” value was -0.0529.

Regarding RRIRQRPPRLPRPRPRPRKNPRP, the “shrunken log2 fold change” value is 0.309.

Consider RRIRQRPPRLPRPRPRPMATPRP, for which the “shrunken log2 fold change” value came out at 0.0329.

Consider RRIRMRPPRLPRPRPRPQWSPRP, for which the “shrunken log2 fold change” value amounted to 0.0117.

For RRIRQRPPRLPRPRPRPMNRPRP, the “shrunken log2 fold change” value was -0.275.

Take RRIRYRPPRLPRPRPRPYAAPRP: the “shrunken log2 fold change” value is -0.546.

On to RRIRCRPPRLPRPRPRPRPLPRP, for which the “shrunken log2 fold change” value came to 0.319.

Take RRIRKRPPRLPRPRPRPCKLPRP: the “shrunken log2 fold change” value is -0.144.

In the case of RRIRLRPPRLPRPRPRPGYVPRP, the “shrunken log2 fold change” value was -0.17.

Regarding RRIRTRPPRLPRPRPRPFKGPRP, the “shrunken log2 fold change” value was -0.264.

For RRIRLRPPRLPRPRPRPRKNPRP, the “shrunken log2 fold change” value was found to be 0.0496.

Take RRIRMRPPRLPRPRPRPRDSPRP: the “shrunken log2 fold change” value turned out to be 0.117.

Consider RRIRSRPPRLPRPRPRPRNEPRP, for which the “shrunken log2 fold change” value turned out to be 0.00717.

With RRIRTRPPRLPRPRPRPTRKPRP, the “shrunken log2 fold change” value amounted to 0.443.

As for RRIRVRPPRLPRPRPRPYYNPRP, the “shrunken log2 fold change” value is -0.548.

As for RRIRWRPPRLPRPRPRPDQQPRP, the “shrunken log2 fold change” value is 0.0822.

On to RRIRDRPPRLPRPRPRPCYGPRP, for which the “shrunken log2 fold change” value was -0.0515.

For the sequence RRIRARPPRLPRPRPRPDSHPRP, the “shrunken log2 fold change” value is -0.779.

On to RRIRFRPPRLPRPRPRPRATPRP, for which the “shrunken log2 fold change” value turned out to be 0.691.

Take RRIRDRPPRLPRPRPRPHNYPRP: the “shrunken log2 fold change” value was -0.423.

Take RRIRNRPPRLPRPRPRPEITPRP: the “shrunken log2 fold change” value was -0.0284.

Consider RRIRSRPPRLPRPRPRPAIIPRP, for which the “shrunken log2 fold change” value was 0.0969.

RRIRQRPPRLPRPRPRPMQVPRP: the “shrunken log2 fold change” value is -0.0356.

As to RRIRYRPPRLPRPRPRPLDSPRP, the “shrunken log2 fold change” value was -0.403.

In the case of RRIRHRPPRLPRPRPRPWTVPRP, the “shrunken log2 fold change” value is -0.217.

In the case of RRIRERPPRLPRPRPRPCCKPRP, the “shrunken log2 fold change” value was -0.267.

Consider RRIRFRPPRLPRPRPRPTDAPRP, for which the “shrunken log2 fold change” value stood at 0.00734.

With RRIRERPPRLPRPRPRPPNLPRP, the “shrunken log2 fold change” value came to 0.0423.

With RRIRGRPPRLPRPRPRPRFQPRP, the “shrunken log2 fold change” value worked out at 0.158.

For the sequence RRIRLRPPRLPRPRPRPASWPRP, the “shrunken log2 fold change” value turned out to be 0.454.

For RRIRFRPPRLPRPRPRPDIVPRP, the “shrunken log2 fold change” value is -0.0567.

On to RRIRRRPPRLPRPRPRPDFEPRP, for which the “shrunken log2 fold change” value was determined as 0.552.

RRIRCRPPRLPRPRPRPAKPPRP: the “shrunken log2 fold change” value was -0.144.

Turning to RRIRVRPPRLPRPRPRPYFGPRP, the “shrunken log2 fold change” value was -0.0505.

Turning to RRIRHRPPRLPRPRPRPWPCPRP, the “shrunken log2 fold change” value was -0.027.

Consider RRIRGRPPRLPRPRPRPTEAPRP, for which the “shrunken log2 fold change” value was -0.0279.

RRIRKRPPRLPRPRPRPDARPRP: the “shrunken log2 fold change” value is -0.0173.

With RRIRHRPPRLPRPRPRPGWLPRP, the “shrunken log2 fold change” value came out at 0.0986.

For RRIRTRPPRLPRPRPRPWRYPRP, the “shrunken log2 fold change” value was 0.108.

For RRIRCRPPRLPRPRPRPFNFPRP, the “shrunken log2 fold change” value was -0.813.
